Here are results for 13 molecules from PMC13480645 (PLOS Pathogens, 2026).

To fix the notation:
B1: eCC65.1-12 (antibody, V domains shown)
VH: EVQLVQSGAEVKKPGASVKVSCKASGYTFTSQYMHWVRQAPGQGLEWMGIIDPSGGGTSYAQKFRDRVSMTRDTPTSTVYMELRSLRSEDTAVYYCASLWFENPSWRDYWGQGTLVTVSS
VL: DVVMTQSPGTLSLSPGERATLSCRASQTVNKNYLAWYQQKPGQAPRLLIYHASSRATGIPDRFSGSGSGTDFTLTISRLEPEDFAVYYCQQYGASPPLFTFGPGTKLEIK
B2: eCC65.1-8 (antibody, V domains shown)
VH: VQLVQSGAEVKKPGASVKVSCKASGYEFTSQYMHWVRQAPGQGLEWMGIIDPSGGGASYAQKFRDRVSMTRDTPTSTVYMELRSLRSEDTAVYYCASLWFGNPSWRDYWGQGTLVTVSS
VL: VMTQSPGTLSLSPGERATLSCRASQTVNSNYLAWYQQKPGQAPRLLIYHASSRATGIPDRFSGSGSGTDFTLTISRLEPEDFAVYYCQQYQSSPPLFTFGPGTKLEIK
B3: eCC65.1-6 (antibody, V domains shown)
VH: B1 VH
VL: B2 VL with S29K, Q91G
B4: eCC65.1-4 (antibody, V domains shown)
VH: B2 VH with E27T, T29E, S53K, A57T, G101E, N102T
VL: B2 VL with S29K, H49G, Q89T, Q91G
B5: eCC65.1-11 (antibody, V domains shown)
VH: B2 VH
VL: B2 VL with Q25S, Q91G, S92A
B6: eCC65.1-13 (antibody, V domains shown)
VH: B1 VH
VL: B2 VL with S29K, H49G, Q91G, S92A
B7: eCC65.1-5 (antibody, V domains shown)
VH: B2 VH with S24T, E27T, A57T, L98I, G101E
VL: B2 VL with S29K, H49G, Q91G
B8: eCC65.1-3 (antibody, V domains shown)
VH: B2 VH with E27T, S53E, A57T, G101E, N102Q
VL: B2 VL with S29K, Q91G, S92A
B9: eCC65.1-7 (antibody, V domains shown)
VH: B2 VH with E27S, A57T, G101E
VL: B2 VL with S29K, Q91G, S92A
B10: eCC65.1-2 (antibody, V domains shown)
VH: B2 VH with S24T, E27T, S53K, A57T, G101E, R106T
VL: B2 VL with S29K, Q91G
B11: eCC65.1-10 (antibody, V domains shown)
VH: B2 VH with E27D, A57T, G101E, R106S
VL: B2 VL with S29K, Q91G, S92A
B12: eCC65.1-1 (antibody, V domains shown)
VH: B2 VH
VL: B2 VL with Q91G, S92A
B13: eCC65.1-9 (antibody, V domains shown)
VH: B2 VH with E27D, S53E, A57T, G101E, N102K
VL: B2 VL with N28T, Q91G, S93K

Positions count from the first letter of the chain named. A value given as a limit tells only on which side of the number the result lay.

For the first test, the target named is T1, SARS-CoV-2 S-2P protein (SARS-CoV-2, ancestral (Wuhan-Hu-1) …, UniProt P0DTC2, stabilised). The test is described as follows: BLI. The settings on record: both partners purified.
The term Kd denotes the equilibrium constant for the complex coming apart. For orientation: kon means the rate constant with which the complex forms. As to B1, the dissociation constant Kd was under 0.001 nM and the kon was 273000 M⁻¹ s⁻¹.

In turn, B2 had a Kd of 0.945 nM and a kon of 258000 M⁻¹ s⁻¹.

As for B3, the dissociation constant Kd was determined as 0.0472 nM and the on-rate constant (kon) worked out at 261000 M⁻¹ s⁻¹.

In turn, B4 yielded a dissociation constant (Kd) of 0.0136 nM and a kon of 287000 M⁻¹ s⁻¹.

B5 gave a dissociation constant Kd of 0.801 nM and a kon of 249000 M⁻¹ s⁻¹.

For the molecule B6, the affinity, expressed as Kd, was 0.0819 nM and the kon amounted to 256000 M⁻¹ s⁻¹.

With B7, the dissociation constant (Kd) was under 0.001 nM and the on-rate (kon) was 286000 M⁻¹ s⁻¹.

On to B8, for which the dissociation constant Kd is under 0.001 nM and the kon stood at 289000 M⁻¹ s⁻¹.

On to B9, for which the Kd amounted to 0.157 nM and the kon is 270000 M⁻¹ s⁻¹.

In turn, B10 yielded a Kd of under 0.001 nM and a kon of 283000 M⁻¹ s⁻¹.

As for B11, the equilibrium dissociation constant (Kd) was under 0.001 nM and the on-rate (kon) is 278000 M⁻¹ s⁻¹.

B12 came in with a dissociation constant Kd of 0.843 nM and a kon of 236000 M⁻¹ s⁻¹.

Molecule B13 yielded a Kd of 0.0102 nM and a kon of 306000 M⁻¹ s⁻¹.

For a further test, the target named is T1, SARS-CoV-2 S-2P protein. The test is described as follows: cell-based or functional assay.
Conditions: not given
With B1, the “IC50 of neutralisation of SARS-CoV-2 pseudovirus (HeLa-hACE2 cells)” value (“IC50” for short) was 5.77 µg/mL.

Regarding B2, the “IC50” value was 3.95 µg/mL.

In the case of B3, the “IC50” value was 2.98 µg/mL.

For the molecule B4, the “IC50” value is 1.84 µg/mL.

In the case of B5, the “IC50” value stood at 5.26 µg/mL.

With B6, the “IC50” value is 2.41 µg/mL.

For B7, the “IC50” value is 1.63 µg/mL.

As for B8, the “IC50” value is 4.67 µg/mL.

Consider B9, for which the “IC50” value is 3.01 µg/mL.

Take B10: the “IC50” value is 2.05 µg/mL.

B11: the “IC50” value is 1.86 µg/mL.

Consider B12, for which the “IC50” value was found to be 5.79 µg/mL.

B13: the “IC50” value worked out at 2.6 µg/mL.
